Test results published in the Immune Epitope Database (IEDB).

What was measured:
HLA-A*69:01 = experiment: IEDB peptide-MHC binding, purified MHC/competitive/fluorescence; filed as Kd, often an IC50 or EC50 that approximates it; ≥ and ≤ were set here for values at or beyond the usual limits of such assays
HLA-A*02:11 [1] = experiment: as above
HLA-B*57:01 = experiment: as above
HLA-A*29:02 [2] = experiment: as above
HLA-B*15:01 [3] = experiment: as above
HLA-B*39:01 = experiment: as above
HLA-A*02:12 [4] = experiment: as above
HLA-A*24:03 [5] = experiment: as above
HLA-A*02:16 [6] = experiment: as above
HLA-A*02:03 [7] = experiment: as above
HLA-B*46:01 = experiment: as above
HLA-A*03:01 [8] = experiment: as above
HLA-B*15:17 = experiment: as above
HLA-A*23:01 [9] = experiment: as above
HLA-A*26:01 [10] = experiment: as above
HLA-B*27:03 = experiment: as above
HLA-A*02:01 [11] = experiment: as above
HLA-A*02:19 [12] = experiment: as above
HLA-A*68:02 [13] = experiment: as above
HLA-B*18:01 = experiment: as above
HLA-B*51:01 = experiment: as above
HLA-A*24:02 [14] = experiment: as above
HLA-B*15:01 [15] = experiment: IEDB peptide-MHC binding, purified MHC/competitive/fluorescence; ≥ and ≤ were set here for values at or beyond the usual limits of such assays
HLA-B*08:01 = experiment: as above
HLA-A*02:01 [16] = experiment: as above
HLA-A*02:11 [17] = experiment: IEDB peptide-MHC binding, purified MHC/direct/fluorescence; filed as Kd, often an IC50 or EC50 that approximates it; ≥ and ≤ were set here for values at or beyond the usual limits of such assays
HLA-A*29:02 [18] = experiment: as above
HLA-A*02:12 [19] = experiment: as above
HLA-A*24:03 [20] = experiment: as above
HLA-A*02:16 [21] = experiment: as above
HLA-A*02:03 [22] = experiment: as above
HLA-A*03:01 [23] = experiment: as above
HLA-A*23:01 [24] = experiment: as above
HLA-A*02:19 [25] = experiment: as above
HLA-A*68:02 [26] = experiment: as above
HLA-B*27:05 = experiment: IEDB peptide-MHC binding, purified MHC/competitive/fluorescence; filed as Kd, often an IC50 or EC50 that approximates it; ≥ and ≤ were set here for values at or beyond the usual limits of such assays; settings: source organism: Orthohantavirus dobravaense
HLA-A*24:02 [27] = experiment: IEDB peptide-MHC binding, purified MHC/competitive/fluorescence; ≥ and ≤ were set here for values at or beyond the usual limits of such assays
HLA-B*07:02 = experiment: as above; settings: source organism: Zaire ebolavirus
HLA-A*26:01 [28] = experiment: IEDB peptide-MHC binding, purified MHC/direct/fluorescence; filed as Kd, often an IC50 or EC50 that approximates it; ≥ and ≤ were set here for values at or beyond the usual limits of such assays; settings: source organism: Zaire ebolavirus
HLA-A*01:01 = experiment: IEDB peptide-MHC binding, purified MHC/competitive/fluorescence; ≥ and ≤ were set here for values at or beyond the usual limits of such assays; settings: source organism: Zaire ebolavirus
[29] = source organism: Coxiella burnetii 'MSU Goat Q177'
[30] = source organism: Vaccinia virus WR
[31] = source organism: Orthohantavirus sangassouense
[32] = source organism: Orthohantavirus dobravaense
[33] = source organism: Zaire ebolavirus
[34] = source organism: Yersinia pestis Nepal516
[35] = source organism: Vibrio parahaemolyticus RIMD 2210633
[36] = source organism: Vaccinia virus

AVDWYQQRI
Kd (HLA-A*69:01; [29]): ≥ 20 µM
Kd (HLA-A*02:11 [1]; [29]): ≥ 20 µM
Kd (HLA-B*57:01; [29]): ≥ 20 µM
Kd (HLA-A*29:02 [2]; [29]): ≥ 20 µM
Kd (HLA-B*15:01 [3]; [29]): ≥ 20 µM
Kd (HLA-B*39:01; [29]): ≥ 20 µM
Kd (HLA-A*02:12 [4]; [29]): ≥ 20 µM
Kd (HLA-A*24:03 [5]; [29]): ≥ 20 µM
Kd (HLA-A*02:16 [6]; [29]): 0.36 µM
Kd (HLA-A*02:03 [7]; [29]): ≥ 20 µM
Kd (HLA-B*46:01; [29]): ≥ 20 µM
Kd (HLA-A*03:01 [8]; [29]): ≥ 20 µM
Kd (HLA-B*15:17; [29]): ≥ 20 µM
Kd (HLA-A*23:01 [9]; [29]): ≥ 20 µM
Kd (HLA-A*26:01 [10]; [29]): ≥ 20 µM
Kd (HLA-B*27:03; [29]): ≥ 20 µM
Kd (HLA-A*02:01 [11]; [29]): ≥ 20 µM
Kd (HLA-A*02:19 [12]; [29]): ≥ 20 µM
Kd (HLA-A*68:02 [13]; [29]): ≥ 20 µM
Kd (HLA-B*18:01; [29]): ≥ 20 µM
Kd (HLA-B*51:01; [29]): ≥ 20 µM

SFERFEIF
Kd (HLA-A*24:02 [14]; source organism: Influenza A virus (A/Harbin/1/1988(H1N2))): 0.237 µM

RQLAKAIIT
IC50 (HLA-B*15:01 [15]; source organism: Vaccinia virus Copenhagen): 40.8 µM

FGLYKSINV
IC50 (HLA-B*08:01; [30]): 37 µM
IC50 (HLA-A*02:01 [16]; [30]): 0.744 µM

IWGGTSFLF
Kd (HLA-A*24:02 [14]; source organism: Salmonella enterica subsp. enterica serovar Typhi): ≤ 0.0001 µM

ITPKTHFLF
Kd (HLA-A*24:02 [14]; source organism: Giardia intestinalis ATCC 50581): 0.0002 µM

MRNTIMASK
Kd (HLA-A*02:11 [17]; [31]): ≥ 20 µM
Kd (HLA-A*29:02 [18]; [31]): ≥ 20 µM
Kd (HLA-A*02:12 [19]; [31]): ≥ 20 µM
Kd (HLA-A*24:03 [20]; [31]): ≥ 20 µM
Kd (HLA-A*02:16 [21]; [31]): ≥ 20 µM
Kd (HLA-A*02:03 [22]; [31]): ≥ 20 µM
Kd (HLA-A*03:01 [23]; [31]): ≥ 20 µM
Kd (HLA-A*23:01 [24]; [31]): ≥ 20 µM
Kd (HLA-A*02:19 [25]; [31]): ≥ 20 µM
Kd (HLA-A*68:02 [26]; [31]): ≥ 20 µM
Kd (HLA-A*69:01; [32]): ≥ 20 µM
Kd (HLA-B*57:01; [32]): ≥ 20 µM
Kd (HLA-B*15:01 [3]; [32]): ≥ 20 µM
Kd (HLA-B*39:01; [32]): ≥ 20 µM
Kd (HLA-B*27:05): 0.144 µM
Kd (HLA-B*46:01; [32]): ≥ 20 µM
Kd (HLA-B*15:17; [32]): ≥ 20 µM
Kd (HLA-A*26:01 [10]; [32]): ≥ 20 µM
Kd (HLA-A*02:01 [11]; [32]): ≥ 20 µM
Kd (HLA-B*18:01; [32]): ≥ 20 µM
Kd (HLA-B*51:01; [32]): ≥ 20 µM

YQSYSENGM
IC50 (HLA-B*15:01 [15]; [33]): 16.7 µM
IC50 (HLA-A*02:01 [16]; [33]): 27.9 µM

YADGGQWYN
Kd (HLA-A*69:01; [34]): ≥ 20 µM
Kd (HLA-A*02:11 [1]; [34]): 0.0562 µM
Kd (HLA-B*57:01; [34]): ≥ 20 µM
Kd (HLA-A*29:02 [2]; [34]): ≥ 20 µM
Kd (HLA-B*15:01 [3]; [34]): ≥ 20 µM
Kd (HLA-B*39:01; [34]): ≥ 20 µM
Kd (HLA-A*02:12 [4]; [34]): ≥ 20 µM
Kd (HLA-A*24:03 [5]; [34]): ≥ 20 µM
Kd (HLA-A*02:16 [6]; [34]): ≥ 20 µM
Kd (HLA-A*02:03 [7]; [34]): ≥ 20 µM
Kd (HLA-B*46:01; [34]): ≥ 20 µM
Kd (HLA-A*03:01 [8]; [34]): ≥ 20 µM
Kd (HLA-B*15:17; [34]): ≥ 20 µM
Kd (HLA-A*23:01 [9]; [34]): ≥ 20 µM
Kd (HLA-A*26:01 [10]; [34]): ≥ 20 µM
Kd (HLA-B*27:03; [34]): ≥ 20 µM
Kd (HLA-A*02:01 [11]; [34]): ≥ 20 µM
Kd (HLA-A*02:19 [12]; [34]): ≥ 20 µM
Kd (HLA-A*68:02 [13]; [34]): ≥ 20 µM
Kd (HLA-B*18:01; [34]): ≥ 20 µM

AQPKCNPNL
IC50 (HLA-B*15:01 [15]; [33]): ≥ 93.5 µM
IC50 (HLA-A*24:02 [27]; [33]): 12.1 µM
IC50 (HLA-B*07:02): ≥ 121 µM
IC50 (HLA-A*02:01 [16]; [33]): 47.6 µM

GTVPTDNPF
Kd (HLA-A*69:01; [35]): ≥ 20 µM
Kd (HLA-A*02:11 [1]; [35]): ≥ 20 µM
Kd (HLA-B*57:01; [35]): 5.47 µM
Kd (HLA-B*39:01; [35]): ≥ 20 µM
Kd (HLA-A*02:12 [4]; [35]): ≥ 20 µM
Kd (HLA-A*24:03 [5]; [35]): ≥ 20 µM
Kd (HLA-A*02:16 [6]; [35]): ≥ 20 µM
Kd (HLA-A*02:03 [7]; [35]): ≥ 20 µM
Kd (HLA-B*46:01; [35]): ≥ 20 µM
Kd (HLA-A*03:01 [8]; [35]): ≥ 20 µM
Kd (HLA-A*23:01 [9]; [35]): ≥ 20 µM
Kd (HLA-A*26:01 [10]; [35]): ≥ 20 µM
Kd (HLA-B*27:03; [35]): ≥ 20 µM
Kd (HLA-A*02:01 [11]; [35]): ≥ 20 µM
Kd (HLA-A*02:19 [12]; [35]): ≥ 20 µM
Kd (HLA-A*68:02 [13]; [35]): ≥ 20 µM
Kd (HLA-B*18:01; [35]): ≥ 20 µM
Kd (HLA-B*51:01; [35]): ≥ 20 µM

IDILRSLET
IC50 (HLA-B*08:01; [36]): ≥ 514 µM
IC50 (HLA-A*02:01 [16]; [36]): 44.3 µM

EAEKQLQQY
Kd (HLA-A*02:11 [17]; [33]): ≥ 20 µM
Kd (HLA-A*29:02 [18]; [33]): ≥ 20 µM
Kd (HLA-A*02:12 [19]; [33]): ≥ 20 µM
Kd (HLA-A*24:03 [20]; [33]): ≥ 20 µM
Kd (HLA-A*02:16 [21]; [33]): ≥ 20 µM
Kd (HLA-A*02:03 [22]; [33]): ≥ 20 µM
Kd (HLA-A*03:01 [23]; [33]): ≥ 20 µM
Kd (HLA-A*23:01 [24]; [33]): ≥ 20 µM
Kd (HLA-A*26:01 [28]): 2.24 µM
Kd (HLA-A*02:19 [25]; [33]): ≥ 20 µM
Kd (HLA-A*68:02 [26]; [33]): ≥ 20 µM
IC50 (HLA-A*01:01): 18.1 µM
Kd (HLA-A*69:01; [33]): ≥ 20 µM
Kd (HLA-B*57:01; [33]): ≥ 20 µM
Kd (HLA-B*15:01 [3]; [33]): ≥ 20 µM
Kd (HLA-B*39:01; [33]): ≥ 20 µM
Kd (HLA-B*46:01; [33]): ≥ 20 µM
Kd (HLA-B*15:17; [33]): ≥ 20 µM
Kd (HLA-B*27:03; [33]): ≥ 20 µM
Kd (HLA-A*02:01 [11]; [33]): ≥ 20 µM
Kd (HLA-B*18:01; [33]): ≥ 20 µM
Kd (HLA-B*51:01; [33]): ≥ 20 µM

VSHLTTLAT
IC50 (HLA-B*15:01 [15]; [33]): 28.7 µM
IC50 (HLA-A*02:01 [16]; [33]): ≥ 719 µM

KHHTKIDSM
IC50 (HLA-B*08:01; source organism: Variola virus): ≥ 209 µM
IC50 (HLA-A*24:02 [27]; source organism: Variola virus): 1.69 µM
